From patent CN106366186A (ATTOGEN BIOMEDICAL (SUZHOU) INC, dated 2017)

T1: His-Vac (HPV16)
T1 peptide: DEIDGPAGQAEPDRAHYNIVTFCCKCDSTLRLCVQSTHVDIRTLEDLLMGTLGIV

T2: 细胞内源的HPV18 E7蛋白 (HeLa, Siha cells) (HPV18, UniProt P06788 1-105)
T2 construct: whole, on cells; Intracellular protein detected by immunocytochemistry in fixed, permeabilised cells
T2 sequence: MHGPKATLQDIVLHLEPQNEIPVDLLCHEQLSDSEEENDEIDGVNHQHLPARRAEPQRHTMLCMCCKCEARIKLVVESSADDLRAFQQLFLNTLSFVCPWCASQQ

T3: His-HPV18 E7重组蛋白 (HPV18, UniProt P06788 1-105)
T3 construct: also called His-HPV18 E7融合蛋白; not shown: His tag
T3 chain: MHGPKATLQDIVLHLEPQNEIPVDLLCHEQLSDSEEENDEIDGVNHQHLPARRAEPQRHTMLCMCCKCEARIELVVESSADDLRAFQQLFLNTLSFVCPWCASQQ

T4: 细胞内源的HPV16 E7蛋白 (CaSki, Siha cells, HPV16-positive cervical cells) (HPV16, UniProt P03129 1-98)
T4 construct: whole, on cells; Intracellular protein detected by immunocytochemistry in fixed, permeabilised cells; also called HPV16 E7内源蛋白
T4 sequence: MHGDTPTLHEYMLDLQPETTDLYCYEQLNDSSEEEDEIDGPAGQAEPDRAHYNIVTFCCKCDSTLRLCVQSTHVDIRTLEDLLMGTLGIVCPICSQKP


Assays:
[1] = target: His-HPV16 E7重组蛋白 (HPV16) (UniProt P03129); assay: indirect ELISA, antibody 0.1μg/ml on 0.1μg/ml coat; threshold for a positive clone
[2] = target: His-HPV16 E7重组蛋白 (HPV16) (UniProt P03129); assay: ELISA, scFv 5μg/ml on 0.1μg/ml coated antigen, anti-Flag-HRP; selection threshold
[3] = target: T1, His-Vac; assay: indirect ELISA on peptides
[4] = target: T2, 细胞内源的HPV18 E7蛋白 (HeLa, Siha cells); assay: immunocytochemistry, HeLa and Siha cells
[5] = target: T3, His-HPV18 E7重组蛋白; assay: indirect ELISA, 0.5μg/ml coat, antibody 1μg/ml
[6] = target: T4, 细胞内源的HPV16 E7蛋白 (CaSki, Siha cells, …); assay: immunocytochemistry, CaSki cells

Binder	OD值 [1]	OD值 [2]	binding result [3]	binding result [4]	binding result [5]	binding result [6]
HPV16 E7兔单克隆抗体RAB-034 (antibody, from another filing, V domains shown) VH: QSLEESGGRLVTPGTPLTLTCTVSGIDLSSYAMGWVRQAPGEGLDWIGSIGSSGRTYYANWAKGRFTISKTSSTTVDLKMTSLTTEDTATYFCARGVVNRSDIWGPGTLVTVSS VL: DPMLTQTASSVSAAVGGTVTISCQSSQSVYDNNWLGWYQQKPGQPPKLLIYGASNLESGVPSRFKGSGSGTQFTLTISDVQCDDAATYYCAGGYSGNRYVFGGGTEVVVK	> 1 OD	–	–	–	–	–
HPV16 E7单链抗体scFv001 (scFv, V domains shown) VH: QSLEESGGRLVTPGTPLTLTCTASGSDISSYAISWVRQAPGKGLEWIGSISNSGNTYYASWAKGRFTIAKTSTTVTLKMTSLTTADTATYFCTRGAISGTPIWGPGTLVTVSS VL: DPMLTQTASSVSAAVGGTVTISCQSSQSVYDNNWLGWYQQKPGQPPKLLIYSVSTLASGVPSRFKGSGSGTQFTLTISDLECDDAATYYCAGGFSGNIYTFGGGTNVEIK	–	> 2 OD	–	–	–	–
HPV16 E7兔单克隆抗体RAB-001 (antibody, V domains shown, also called RAB-01; anti-HPV16 E7单抗RAB-001) VH: QSLEESGGRLVTPGTPLTLTCTASGSDISSYAISWVRQAPGKGLEWIGSISNSGNTYYASWAKGRFTIAKTSTTVTLKMTSLTTADTATYFCTRGAISGTPIWGPGTLVTVSS VL: DPMLTQTASSVSAAVGGTVTISCQSSQSVYDNNWLGWYQQKPGQPPKLLIYSVSTLASGVPSRFKGSGSGTQFTLTISDLECDDAATYYCAGGFSGNIYTFGGGTNVEIK	> 1 OD	–	no binding (tested: antibody 1μg/ml, peptide coat 2μg/ml)	binds	binds	binds
